Results from patent US20210388105A1 (ELPISCIENCE SUZHOU BIOPHARMA, published 2021).
Values belong to the binder of their own block, whether it stands above or below them.

What was measured:
[1] = target: T1, human CD39 (full length, on cells) (human, UniProt P49961 1-510); assay: FACS, SK-MEL-28 cells
T1 construct: Recombinant on CHOK1-hCD39 cells or natural on SK-MEL-28, SK-MEL-5 and MOLP-8 cells; the cell line is named under assay; also called hCD39; ENTPD1
T1 sequence: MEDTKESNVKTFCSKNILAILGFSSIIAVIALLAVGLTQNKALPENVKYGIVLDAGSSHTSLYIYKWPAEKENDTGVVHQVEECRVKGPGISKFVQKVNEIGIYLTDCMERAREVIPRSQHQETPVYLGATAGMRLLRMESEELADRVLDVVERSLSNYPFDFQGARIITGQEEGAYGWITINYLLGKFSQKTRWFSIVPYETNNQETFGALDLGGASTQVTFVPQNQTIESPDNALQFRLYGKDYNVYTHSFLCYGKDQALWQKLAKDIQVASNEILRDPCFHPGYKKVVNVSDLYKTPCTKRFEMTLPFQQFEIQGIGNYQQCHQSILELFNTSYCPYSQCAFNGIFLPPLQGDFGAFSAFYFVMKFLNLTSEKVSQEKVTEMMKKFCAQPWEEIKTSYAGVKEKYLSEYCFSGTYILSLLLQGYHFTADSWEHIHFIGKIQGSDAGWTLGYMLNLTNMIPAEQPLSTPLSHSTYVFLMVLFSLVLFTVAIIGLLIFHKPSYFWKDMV
Experimental: (§1) FACS were used to determine binding of the antibodies to cell lines expressing CD39 naturally (SK-MEL-28) or recombinantly (CHOK1-hCD39, CHOK1-cynoCD39, and CHOK1-mCD39), or with cells lacking CD39 expression (CHOK1-blank) as a negative control.
(§2) Similarly, human CD39 expressing cells SK-MEL-5, SK-MEL-28 or MOLP-8, were incubated with a gradient concentration of anti-CD39 antibodies for 30 minutes at 4° C. Cells were washed 3 times using FACS buffer and next incubated with fluorescence labelled secondary antibody (goat-anti-mouse IgG or goat anti-human IgG) for 30 minutes at 4° C. Cells were washed 3 times and then re-suspended in FACS buffer and analyzed by flow cytometry analysis on BD Celesta. Data plotted and analyzed using GraphPad Prism 8.02.

[2] = target: T1, human CD39 (full length, on cells); assay: cell-based or functional assay
[3] = target: T1, human CD39 (full length, on cells); assay: FACS, CHOK1-hCD39 cells
From the text: as §1
(§3) CHOK1-hCD39, CHOK1-cCD39, CHOK1-mCD39 and CHOK1-blank cells were maintained in culture medium according to ATCC procedure. Cells were collected and re-suspended in blocking buffer at a density of 3×10⁶ cells/ml. Cells were transferred to 96 well FACS plates at 100 μl/well (3×10⁵ cells/well), the plates were centrifuged and washed twice with FACS buffer (PBS, 1% FBS, 0.05% Tween-20). 4-folds serial dilution of anti-CD39 antibodies were prepared in FACS buffer starting from 30 μg/ml. Reference antibody 9-8B and mouse/human control IgG were used as positive and negative controls, respectively. Cells were re-suspended in 100 μL/well diluted antibodies, and the plates were incubated at 4° C. for 60 min. […] The plates were washed with FACS buffer, and cells were re-suspended in 100 μL/well of PBS. Cells were then analyzed with FACSVerse™ and mean fluorescence intensity were determined. Full binding curves were generated on the CD39 expressing cells by testing a range of antibody concentrations. Apparent affinity was determined for each antibody using Prism software.

[4] = target: T2, mouse CD39 (full length, on CHOK1-mCD39 cells) (mouse, UniProt P55772 1-510); assay: FACS, CHOK1-mCD39 cells
T2 construct: whole, on cells
T2 sequence (looked up): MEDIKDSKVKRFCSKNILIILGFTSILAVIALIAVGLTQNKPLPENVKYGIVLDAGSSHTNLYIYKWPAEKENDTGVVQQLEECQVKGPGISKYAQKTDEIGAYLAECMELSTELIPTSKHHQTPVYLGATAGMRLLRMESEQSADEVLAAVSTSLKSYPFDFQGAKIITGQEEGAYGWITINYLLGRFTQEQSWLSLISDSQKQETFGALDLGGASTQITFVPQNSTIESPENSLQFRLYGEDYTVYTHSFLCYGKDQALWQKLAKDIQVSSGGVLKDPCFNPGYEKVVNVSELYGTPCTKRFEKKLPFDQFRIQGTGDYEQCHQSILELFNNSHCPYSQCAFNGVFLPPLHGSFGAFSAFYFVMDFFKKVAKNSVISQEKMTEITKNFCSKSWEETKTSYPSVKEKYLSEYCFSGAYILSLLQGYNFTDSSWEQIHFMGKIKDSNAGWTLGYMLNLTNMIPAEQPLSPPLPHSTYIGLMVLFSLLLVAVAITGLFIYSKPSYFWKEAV
From the text: as §1, §3

[5] = target: T3, cynomolgus CD39 (full length, on CHOK1-cynoCD39 cells) (cynomolgus monkey, UniProt A0A7N9DGH8 1-510); assay: FACS, CHOK1-cynoCD39 cells
T3 construct: whole, on cells; also called cCD39
T3 sequence: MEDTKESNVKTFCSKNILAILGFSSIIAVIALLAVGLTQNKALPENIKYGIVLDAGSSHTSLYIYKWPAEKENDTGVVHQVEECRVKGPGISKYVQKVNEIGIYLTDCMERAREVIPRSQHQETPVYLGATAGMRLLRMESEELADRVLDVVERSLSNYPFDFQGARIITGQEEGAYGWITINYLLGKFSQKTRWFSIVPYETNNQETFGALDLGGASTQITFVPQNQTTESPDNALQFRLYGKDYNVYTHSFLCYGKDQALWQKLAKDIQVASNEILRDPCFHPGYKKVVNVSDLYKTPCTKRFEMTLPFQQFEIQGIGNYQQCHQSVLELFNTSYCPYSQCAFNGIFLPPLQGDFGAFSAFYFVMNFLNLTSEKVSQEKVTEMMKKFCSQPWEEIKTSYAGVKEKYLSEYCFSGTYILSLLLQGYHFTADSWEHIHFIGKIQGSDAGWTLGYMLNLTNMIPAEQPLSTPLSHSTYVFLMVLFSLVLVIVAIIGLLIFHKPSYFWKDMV
From the text: as §1, §3

[6] = target: T1, human CD39 (full length, on cells); assay: FACS, MOLP-8 cells
Experimental: as §2
(§4) The binding affinity of the humanized antibodies for c14 was determined by FACS using MOLP-8 cells expressing human CD39, using similar methods as described in Example 3.2.

[7] = target: T1, human CD39 (full length, on cells); assay: FACS on MOLP-8 cells, MFI
Experimental: as §2, §4

EC50 [1]: 1.8 nM
SK-MEL-28 cell based ATPase inhibition % at 10 nM [2]: 56%
EC50 [3]: 5.2 nM
EC50 [5]: 5.3 nM
B1: mAb35 (antibody, V domains shown)
VH: EVRLQQSGAELVKPGASVKLSCTASGFNIEDTYVHWMKQRPEQGLEWIGRIDPAIDNSKYDPKFQGKATITAVSSSNTAYLQLSSLTSEDTAVYYCALYDGYNVYAMDYWGQGTSVTVSS
VL: DIVMTQAAFSNPVTLGTSASISCRSSKNLLHSNGITYLYWYLQRPGQSPQLLIYRASTLASGVPNRFSGSESGTDFTLRISRVEAEDVGVYYCAQLLELPHTFGGGTKLEIK
notes: mouse hybridoma antibody
binding result [4]: no binding (tested: 30 µg/ml highest concentration)

binding result [7]: binds
B7: hu14.H4L2 (antibody, V domains shown)
VH: EVQLVESGGGLVKPGGSMRLSCAASGFTFSKYWMNWVRQSPGKGLEWVAEIRLKSNKYGTHYAESVKGRFTISRDDSKNTVYLQMNSLKTEDTAVYYCTTQLDLYWFFDVWGQGTTVTVSS
VL: EIVLTQSPATLSLSPGERATLSCRASQSISDYLHWYQQKPGQSPRLLIYYASQSISGIPARFSGSGSGTDFTLTISSLEPEDFAVYFCQNGHSLPLTFGGGTKLEIK
notes: humanized c14

binding result [7]: binds
B8: hu14.H3L2 (antibody, V domains shown)
VH: EVQLVESGGGLVKPGGSLRLSCAASGFTFSKYWMNWVRQSPGKGLEWVAEIRLKSNKYGTHYAESVKGRFTISRDDSKNTVYLQMNSLKTEDTAVYYCTTQLDLYWFFDVWGQGTTVTVSS
VL: EIVLTQSPATLSLSPGERATLSCRASQSISDYLHWYQQKPGQSPRLLIYYASQSISGIPARFSGSGSGTDFTLTISSLEPEDFAVYFCQNGHSLPLTFGGGTKLEIK
notes: humanized c14

binding result [7]: binds
B9: hu14.H1L4 (antibody, V domains shown)
VH: EVQLVESGGGLVKPGGSLRLSCAASGFTFSKYWMNWVRQAPGKGLEWVGEIRLKSNKYGTHYAESVKGRFTISRDDSKNTLYLQMNSLKTEDTAVYYCTTQLDLYWFFDVWGQGTTVTVSS
VL: EIVMTQSPATLSVSPGERVTLSCRASQSISDYLHWYQQKPGQSPRLLIYYASQSISGIPARFSGSGSGTDFTLTISSVEPEDFAVYFCQNGHSLPLTFGGGTKLEIK
notes: humanized c14

EC50 [1]: 11 nM
SK-MEL-28 cell based ATPase inhibition % at 10 nM [2]: 43%
EC50 [3]: 30 nM
EC50 [5]: 21 nM
B10: mAb13 (antibody, V domains shown)
VH: QIQLVQSGPELKKPGETVKISCKASGYTFTNYGMNWVKQAPGKGLRWMGLINTYTGEPTYADDFKDRFAFSLETSASTAFLQINNLKDEDMATYFCARKGIYYDYVWFFDVWGAGTTVTVSS
VL: DIQMTQSPSSLSTSLGGKVSITCKASQDINRYIAWYQHKPGKGPRLLIHYTSTLLPGIPSRFSGSGSGRDYSFSISNLEPEDIATYFCLQYSNLLTFGGGTKLEIK
notes: mouse hybridoma antibody
binding result [4]: no binding (tested: 30 µg/ml highest concentration)

EC50 [1]: 4.7 nM
SK-MEL-28 cell based ATPase inhibition % at 10 nM [2]: 72%
EC50 [3]: 4.4 nM
EC50 [5]: 3.1 nM
B11: mAb34 (antibody, V domains shown)
VH: EIQVQQSGPELVKPGASVKVSCKASGYSFTDYNMYWVKQSHGKSLEWIGFIDPYNGYTSYNQKFKGKATLTIDKSSSTAFMHLNSLTSEDSAVYYCAIYGYDDAYYFDYWGQGTTLTVSS
VL: QIVLTQSPAIMSASPGEKVTITCSATSSVSYMHWFRQKPGTSPKLWIYSTSNLASGVPARFSGSGSGTSYSLTISRMAAEDAATYYCQQRITYPFTFGSGTKLEIT
notes: mouse hybridoma antibody
binding result [4]: no binding (tested: 30 µg/ml highest concentration)

The next lines start with the binder.

B2: hu14.H2L2 (antibody, V domains shown)
VH: EVQLVESGGGLVKPGGSLRLSCAASGFTFSKYWMNWVRQSPGKGLEWVGEIRLKSNKYGTHYAESVKGRFTISRDDSKNTLYLQMNSLKTEDTAVYYCTTQLDLYWFFDVWGQGTTVTVSS
VL: EIVLTQSPATLSLSPGERATLSCRASQSISDYLHWYQQKPGQSPRLLIYYASQSISGIPARFSGSGSGTDFTLTISSLEPEDFAVYFCQNGHSLPLTFGGGTKLEIK
notes: humanized c14
EC50 [6]: 6.91 nM

B3: hu14.H1L3 (antibody, V domains shown)
VH: EVQLVESGGGLVKPGGSLRLSCAASGFTFSKYWMNWVRQAPGKGLEWVGEIRLKSNKYGTHYAESVKGRFTISRDDSKNTLYLQMNSLKTEDTAVYYCTTQLDLYWFFDVWGQGTTVTVSS
VL: EIVLTQSPATLSVSPGERATLSCRASQSISDYLHWYQQKPGQSPRLLIYYASQSISGIPARFSGSGSGTDFTLTISSVEPEDFAVYFCQNGHSLPLTFGGGTKLEIK
notes: humanized c14
binding result [7]: binds

B4: hu14.H2L3 (antibody, V domains shown)
VH: EVQLVESGGGLVKPGGSLRLSCAASGFTFSKYWMNWVRQSPGKGLEWVGEIRLKSNKYGTHYAESVKGRFTISRDDSKNTLYLQMNSLKTEDTAVYYCTTQLDLYWFFDVWGQGTTVTVSS
VL: EIVLTQSPATLSVSPGERATLSCRASQSISDYLHWYQQKPGQSPRLLIYYASQSISGIPARFSGSGSGTDFTLTISSVEPEDFAVYFCQNGHSLPLTFGGGTKLEIK
notes: humanized c14
binding result [7]: binds

B5: hu14.H2L4 (antibody, V domains shown)
VH: EVQLVESGGGLVKPGGSLRLSCAASGFTFSKYWMNWVRQSPGKGLEWVGEIRLKSNKYGTHYAESVKGRFTISRDDSKNTLYLQMNSLKTEDTAVYYCTTQLDLYWFFDVWGQGTTVTVSS
VL: EIVMTQSPATLSVSPGERVTLSCRASQSISDYLHWYQQKPGQSPRLLIYYASQSISGIPARFSGSGSGTDFTLTISSVEPEDFAVYFCQNGHSLPLTFGGGTKLEIK
notes: humanized c14
binding result [7]: binds

B6: hu14.H2L1 (antibody, V domains shown)
VH: EVQLVESGGGLVKPGGSLRLSCAASGFTFSKYWMNWVRQSPGKGLEWVGEIRLKSNKYGTHYAESVKGRFTISRDDSKNTLYLQMNSLKTEDTAVYYCTTQLDLYWFFDVWGQGTTVTVSS
VL: EIVLTQSPATLSLSPGERATLSCRASQSISDYLHWYQQKPGQAPRLLIYYASQSISGIPARFSGSGSGTDFTLTISSLEPEDFAVYYCQNGHSLPLTFGGGTKLEIK
notes: humanized c14
binding result [7]: binds
